Experimental findings from patent US20040127421 are described below.

The target in the data set is T1, 19-mer (SEQ ID NO:11) PRCGNPDVANYNFFPRKPK
T1 chain: PRCGNPDVANYNFFPRKPK

B1: Proenzyme pro-MMP-9 (protein)
chain: APRQRQSTLVLFPGDLRTNLTDRQLAEEYLYRYGYTRVAEMRGESKSLGPALLLLQKQLSLPETGELDSATLKAMRTPRCGVPDLGRFQTFEGDLKWHHHNITYWIQNYSEDLPRAVIDDAFARAFALWSAVTPLTFTRVYSRDADIVIQFGVAEHGDGYPFDGKDGLLAHAFPPGPGIQGDAHFDDDELWSLGKGVVVPTRFGNADGAACHFPFIFEGRSYSACTTDGRSDGLPWCSTTANYDTDDRFGFCPSERLYTQDGNADGKPCQFPFIFQGQSYSACTTDGRSDGYRWCATTANYDRDKLFGFCPTRADSTVMGGNSAGELCVFPFTFLGKEYSTCTSEGRGDGRLWCATTSNFDSDKKWGFCPDQGYSLFLVAAHEFGHALGLDHSSVPEALMYPMYRFTEGPPLHKDDVNGIRHLYGPRPEPEPRPPTTTTPQPTAPPTVCPTGPPTVHPSERPTAGPTGPPSAGPTGPPTAGPSTATTVPLSPVDDACNVNIFDAIAEIGNQLYLFKDGKYWRFSEGRGSRPQGPFLIADKWPALPRKLDSVFEERLSKKLFFFSGRQVWVYTGASVLGPRRLDKLGLGADVAQVTGALRSGRGKMLLFSGRRLWRFDVKAQMVDPRSASEVDRMFPGVPLDTHDVFQYREKAYFCQDRFYWRVSSRSELNQVDQVGYVTYDILQCPED
As for B1, the “conversion of pro-MMP-9 into prodomain and active enzyme by stromilysin (HPLC peak areas)” value is “Titrating the standard splicing reaction with the 19-mer prevents the conversion of pro-MMP-9 into the prodomain and the active enzyme. Splicing can be inhibited in a dose dependent manner with micromolar 19-mer”.
